Results as given in PMC6589562.

Target: spoke HSP40 (His-tagged recombinant HSP40) (Chlamydomonas reinhardtii)
Assay: AUC

## spoke HSP40 (His-tagged recombinant HSP40) (natural protein)
  stoichiometry N: 2
